The source of these data is PMC4351158 (Structure (London, England : 1993), 2015).

Where no end group is shown, it is not given here. fluorescein = fluorescein, a fluorescent label on the peptide N-terminus

Common to all, as to assay: fluorescence polarisation
For orientation: Polarisation of emitted light reports the rotation of a fluorescent probe.

The target of one test is T1, DegS P229A (E. coli, UniProt P0AEE3 27-355, P229A).
T1 sequence (looked up): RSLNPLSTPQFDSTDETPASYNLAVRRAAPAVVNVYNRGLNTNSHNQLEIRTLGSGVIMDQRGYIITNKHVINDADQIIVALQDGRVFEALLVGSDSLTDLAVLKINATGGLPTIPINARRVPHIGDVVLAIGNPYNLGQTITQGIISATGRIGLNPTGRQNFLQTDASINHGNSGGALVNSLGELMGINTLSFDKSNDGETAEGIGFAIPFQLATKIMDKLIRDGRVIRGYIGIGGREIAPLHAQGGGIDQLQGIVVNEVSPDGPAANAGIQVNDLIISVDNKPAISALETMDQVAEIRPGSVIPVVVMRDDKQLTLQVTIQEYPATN

The next test has as its target T2, DegS I179A/H198P (E. coli, UniProt P0AEE3 27-355, I179A | H198P).
T2 sequence (looked up): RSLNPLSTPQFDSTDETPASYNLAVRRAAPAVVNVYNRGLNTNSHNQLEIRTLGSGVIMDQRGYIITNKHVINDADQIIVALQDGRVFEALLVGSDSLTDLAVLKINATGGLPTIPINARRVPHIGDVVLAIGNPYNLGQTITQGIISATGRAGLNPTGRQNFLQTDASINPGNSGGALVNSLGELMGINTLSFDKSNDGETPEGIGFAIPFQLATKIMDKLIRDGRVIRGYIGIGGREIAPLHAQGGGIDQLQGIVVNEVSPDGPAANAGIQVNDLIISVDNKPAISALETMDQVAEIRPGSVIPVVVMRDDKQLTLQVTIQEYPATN

Another test has as its target T3, DegS Q191A/H198P (E. coli, UniProt P0AEE3 27-355, Q191A | H198P).
T3 sequence (looked up): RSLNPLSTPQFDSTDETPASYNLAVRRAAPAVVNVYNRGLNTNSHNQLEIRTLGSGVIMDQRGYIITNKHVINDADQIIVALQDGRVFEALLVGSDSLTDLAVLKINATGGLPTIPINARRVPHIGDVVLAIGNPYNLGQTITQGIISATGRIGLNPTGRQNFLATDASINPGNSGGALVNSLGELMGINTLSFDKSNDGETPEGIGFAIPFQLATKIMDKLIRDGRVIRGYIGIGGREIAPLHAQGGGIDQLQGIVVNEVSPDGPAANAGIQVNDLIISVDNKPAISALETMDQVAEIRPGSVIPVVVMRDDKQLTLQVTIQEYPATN

The target of the next test is T4, DegS D221A/H198P (E. coli, UniProt P0AEE3 27-355, D221A | H198P).
T4 sequence (looked up): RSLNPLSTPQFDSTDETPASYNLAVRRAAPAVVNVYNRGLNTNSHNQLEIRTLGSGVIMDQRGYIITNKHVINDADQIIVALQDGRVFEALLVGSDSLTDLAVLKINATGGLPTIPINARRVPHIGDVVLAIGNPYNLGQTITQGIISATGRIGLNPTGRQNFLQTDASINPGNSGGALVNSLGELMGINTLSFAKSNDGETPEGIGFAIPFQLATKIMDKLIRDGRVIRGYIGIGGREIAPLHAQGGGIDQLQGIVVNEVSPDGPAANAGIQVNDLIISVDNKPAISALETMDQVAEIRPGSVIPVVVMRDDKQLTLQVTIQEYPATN

The next test addresses T5, DegS H198P/F234A (E. coli, UniProt P0AEE3 27-355, H198P | F234A).
T5 sequence (looked up): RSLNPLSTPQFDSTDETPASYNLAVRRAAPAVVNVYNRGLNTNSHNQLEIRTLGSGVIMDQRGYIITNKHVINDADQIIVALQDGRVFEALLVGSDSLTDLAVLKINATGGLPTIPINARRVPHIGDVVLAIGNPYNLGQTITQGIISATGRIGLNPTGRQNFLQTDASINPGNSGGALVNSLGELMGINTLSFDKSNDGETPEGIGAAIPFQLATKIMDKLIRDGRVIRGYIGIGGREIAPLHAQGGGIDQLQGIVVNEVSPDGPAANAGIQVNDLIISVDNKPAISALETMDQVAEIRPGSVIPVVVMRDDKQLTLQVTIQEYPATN

In the case of fluorescein-DNRDGNVYYF [fluorescent OMP peptide fluorescein-DNRDGNVYYF], the Kd – broadly, the equilibrium constant for the complex coming apart – came out at 1.6 ± 0.2 µM in the test with DegS P229A; 1.6 ± 0.1 µM with DegS I179A/H198P; 1.4 ± 0.1 µM with DegS Q191A/H198P; 1.7 ± 0.1 µM with DegS D221A/H198P; 2.9 ± 0.1 µM with DegS H198P/F234A.
